# Source: patent CN1803842A (UNIV NANJING MEDICAL, dated 2006)
# Experiments:
# BSA = biological target: T1, BSA (UniProt P02769 25-607); experiment: Western blot, 20 μg BSA per lane, purified scFv 1:5, detection with anti-c-myc antibody
# T1 construct: Control protein in the Western blot
# Aβ1-42 = biological target: T2, Aβ1-42 (UniProt P05067 672-713); experiment: Western blot, 20 μg Aβ1-42 per lane on PVDF, purified scFv 1:5, detection with anti-c-myc antibody and HRP goat anti-mouse IgG
# T2 construct: domain: Aβ1-42; Sample loaded on the Tricine SDS-PAGE gel for the Western blot (20 μg per lane); also called Aβ 42; 合成的Aβ多肽
binder,measurement,setting,value
"E3单链抗体 (抗Aβ可溶性单链抗体) (scFv, Soluble scFv expressed in E. coli HB2151, purified on His-Trap, about 31 kD; also called E3scFv; E3 scFv; not shown: C-terminal tags of the pHEN2 vector, implied by His-Trap purification and detect) scFv: QVQLQESGPGLVKPSETLSLTCAVSGYSISSGYYWGWIRQPPGKGLEWIGSIYHSGSTYYNPSLKSRVTISVDTSKNQFSLKLSSVTAADTAVYYCARDLGSSVSWGQGTLVTVSSGGGGSGGGGSGGSALDIQMTQSPSSLSASVGDRVTISCRMSQGISNYLAWYQQKPGKVPKLLIYAASTLQSGVPSRFSGSGSGTDFTLTISSLQPEDVATYYCQKYNSALVTFGQGTKLEIKR",binding result,BSA,no binding
same,binding result,Aβ1-42,binds
